Results on 10 molecules are retold here after US20190359723A1 (CARSGEN THERAPEUTICS, published 2019).

Test [1] has as its target T1, IL-13RA2 huFc (human).
T1 construct: Expressed in 293F cells, purified on protein A; also called human IL13RA2; recombinant IL-13RA2
Put plainly: SPR (Biacore T200), scFv_Fc forms on IL-13RA2 huFc, summary table. Here is the method:
(§1) IL-13RA2 huFc was coated on the CMS chip by amino coupling, coated to about 500 RU, and the gradiently diluted antibodies were passed through the antigen-coated channel at a flow rate of 30 ul/min as a mobile phase. The running buffer was HBS-N and the temperature was 25° C. The experimental data was analyzed by BIAevaluation 3.2 and the kinetic curves were fitted using a 1:1 langmuir model.
(§2) Affinity was determined using the method of Example 5 using biacore T200, and the results are shown as in FIGS. 11B-11G. […] The association and dissociation constants of the antibodies are shown as in FIG. 11F.
On the technique in general: In SPR one partner is held on a chip, and binding of the other changes the refractive index at the surface.
Target sequence in this assay (chain, as listed by the source limits assumed): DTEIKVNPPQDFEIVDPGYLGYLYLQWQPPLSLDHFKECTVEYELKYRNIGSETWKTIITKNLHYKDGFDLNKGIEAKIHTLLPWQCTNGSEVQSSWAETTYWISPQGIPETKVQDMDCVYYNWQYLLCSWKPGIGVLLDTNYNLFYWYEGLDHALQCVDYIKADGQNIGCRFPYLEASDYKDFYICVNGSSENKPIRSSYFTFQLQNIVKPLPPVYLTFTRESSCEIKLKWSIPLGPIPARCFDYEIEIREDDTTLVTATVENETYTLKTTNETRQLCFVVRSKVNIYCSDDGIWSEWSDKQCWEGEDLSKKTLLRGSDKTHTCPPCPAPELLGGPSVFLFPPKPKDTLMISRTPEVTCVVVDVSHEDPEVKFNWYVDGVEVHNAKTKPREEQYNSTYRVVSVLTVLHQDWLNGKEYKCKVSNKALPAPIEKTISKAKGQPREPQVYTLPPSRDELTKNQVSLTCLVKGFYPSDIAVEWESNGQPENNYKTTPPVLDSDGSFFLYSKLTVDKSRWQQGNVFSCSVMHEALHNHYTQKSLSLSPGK

The target of test [2] is T2, IL-13RA2 endogenously expressed on U251 cells (human, UniProt Q14627 27-380).
T2 construct: whole, on cells; also called U251 cells expressing IL13RA2; U251 (IL-13RA2-positive)
T2 sequence (looked up): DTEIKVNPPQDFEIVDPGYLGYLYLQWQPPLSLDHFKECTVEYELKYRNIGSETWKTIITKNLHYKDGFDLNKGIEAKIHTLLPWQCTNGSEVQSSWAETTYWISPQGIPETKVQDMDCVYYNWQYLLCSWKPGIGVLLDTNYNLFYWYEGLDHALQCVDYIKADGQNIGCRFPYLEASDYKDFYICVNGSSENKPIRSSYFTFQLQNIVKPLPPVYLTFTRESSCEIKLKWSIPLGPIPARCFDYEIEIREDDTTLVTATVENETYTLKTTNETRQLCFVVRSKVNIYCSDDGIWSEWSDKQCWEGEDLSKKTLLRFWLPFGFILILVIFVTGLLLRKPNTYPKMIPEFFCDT
The test can be described thus: flow cytometry on U251 cells, scFv_Fc form, 5-fold dilutions from 2,000 nM, FITC anti-human IgG. Here is the method: Following the method of Example 6, cells were harvested, washed once with a growth medium, and resuspended in PBS, and the cell concentration was adjusted to 4E+5 cells/ml. The gradiently diluted scFv_Fc fusion antibody was incubated with the cells for 30 minutes on ice, and the antibody was 5-fold serially diluted with 2,000 nM as the initial concentration, into 11 gradients. Then the mixture was incubated with a FITC-labeled anti-human IgG secondary antibody. After two washing steps, detection was performed using a Guava easyCyte™ HT System instrument. […] There is also a 2-8 fold increase compared with the parent antibody.
On the technique in general: Flow cytometry measures light scatter and fluorescence of single cells or particles in a stream.

The target in test [3] is T1, IL-13RA2 huFc. Put plainly: SPR (Biacore T200), ligand IL13Ra2 on the chip, scFv_Fc as analyte at 6.25 to 100 nM, 1:1 binding fit, flow 30 ul/min. Here is the method: as §1, §2
Target sequence in this assay (chain, as listed by the source limits assumed): as the sequence (chain, as listed by the source limits assumed) above
Test [4] concerns the target T1, IL-13RA2 huFc. Put plainly: Biacore, induced supernatant of the scFv clone; parent 31C2.
Target sequence in this assay (chain, as listed by the source limits assumed): as the sequence (chain, as listed by the source limits assumed) above
In test [5] the target is T1, IL-13RA2 huFc. Put plainly: SPR (Biacore), induced scFv supernatant; column head: Dissociation constant Kd(S-1).
Target sequence in this assay (chain, as listed by the source limits assumed): as the sequence (chain, as listed by the source limits assumed) above
Test [6] deals with T1, IL-13RA2 huFc. Put plainly: SPR (Biacore T200), nickel-purified scFv. Here is the method:
as §1
Affinity purification was performed using a nickel column, affinity was measured using biacore T200, and the association and dissociation constants of the affinity matured antibodies are shown as in FIG. 10A.
Target sequence in this assay (chain, as listed by the source limits assumed): as the sequence (chain, as listed by the source limits assumed) above

The target in test [7] is T1, IL-13RA2 huFc. The test can be described thus: SPR (Biacore T200), ligand IL13Ra2 on the chip, scFv_Fc as analyte at 100, 50, 25 and 6.25 nM, 1:1 binding fit, flow 30 ul/min. Here is the method:
as §1, §2

Broadly, the Kd is the constant that tells how readily two partners part at equilibrium. Low readings indicate a tighter complex, high ones a looser complex. As a reminder, the koff is a measure of how fast the partners let go of each other. High values mean fast dissociation, low ones slow dissociation. One may read the kon as a measure of how fast the partners come together. Higher therefore signals faster complex formation. One may read the EC50 as the concentration needed to bring the measured effect to its halfway point. The low end stands for higher potency in that assay, the high end for lower potency in that assay.

Where only a bound is given, the exact number is not on record here.

B1: 1B11 (scFv_Fc form) (Fc fusion)
scFv: EVQLLESGGGLVQPGGSLRLSCAASGFTFSRDALNWVRQAPGKGLEWVSAISGSGGSTFYADSVKGRFTISRDNSKNTLYLQMNSLRAEDTAVYYCAKVRYGWGAGAFDYWGQGTLVTVSSGGGGSGGGGSGGGGSDIQMTQSPSTLSASVGDRVTITCRASQSISSWLAWYQQKPGKAPKLLIYDASSLESGVPSRFSGSGSGTEFTLTISSLQPDDFATYYCQQYDTYPPITFGQGTKVEIK
notes: not shown: human Fc segment of the eukaryotic expression vector V152
Regarding B1, in the test with IL-13RA2 huFc [1], the equilibrium dissociation constant (Kd) was found to be 1.04 nM, the koff was determined as 0.000263 s⁻¹ and the on-rate constant (kon) worked out at 253000 M⁻¹ s⁻¹. For the same molecule, the EC50 in test [2] worked out at 0.47 nM. In the test with IL-13RA2 huFc [3], this molecule had a Kd of 1.04 nM, a koff of 0.000263 s⁻¹ and a kon of 252000 M⁻¹ s⁻¹.

B2: 2A5 (scFv) (scFv)
scFv: EVQLLESGGGLVQPGGSLRLSCAASGFTFSRYAMNWVRQAPGKGLEWVSAISASGGGTYYADSVKGRFTISRDNSKNTLYLQMNSLRAEDTAVYYCAKVRYGWGAGAFDYWGQGTLVTVSSGGGGSGGGGSGGGGSDIQMTQSPSTLSASVGDRVTITCRASQSISSWLAWYQQKPGKAPKLLIYDASSLESGVPSRFSGSGSGTEFTLTISSLQPDDFATYYCQQYDTYPPITFGQGTKVEIK
notes: also called clone 2A5
Take B2: the “fold lower dissociation constant Kd than the parent clone” value with IL-13RA2 huFc [4] was above 10 times. In addition, the koff with IL-13RA2 huFc [5] was determined as 0.000788 s⁻¹. In the test with IL-13RA2 huFc [6], the Kd turned out to be 15.5 nM, the koff was found to be 0.000656 s⁻¹ and the kon was 42400 M⁻¹ s⁻¹.

B3: 2C7 (scFv) (scFv)
scFv: EVQLLESGGGLVQPGGSLRLSCAASGFTFKLPAMSWVRQAPGKGLEWVSAITGSGGSTYYADSVKGRFTISRDNSKNTLYLQMNSLRAEDTAVYYCAKVRYGWGAGAFDYWGQGTLVTVSSGGGGSGGGGSGGGGSDIQMTQSPSTLSASVGDRVTITCRASQSISSWLAWYQQKPGKAPKLLIYDASSLESGVPSRFSGSGSGTEFTLTISSLQPDDFATYYCQQYDTYPPITFGQGTKVEIK
notes: also called clone 2C7
B3: the “fold lower dissociation constant Kd than the parent clone” value with IL-13RA2 huFc [4] is 10 times. This molecule showed a koff in the test with IL-13RA2 huFc [5] of 0.000501 s⁻¹. In the test with IL-13RA2 huFc [6], the Kd was 5.42 nM, the off-rate constant (koff) came out at 0.00041 s⁻¹ and the kon worked out at 75700 M⁻¹ s⁻¹.

B4: 1D8 (scFv) (scFv)
scFv: EVQLLESGGGLVQPGGSLRLSCAASGFTFSRYAMNWVRQAPGKGLEWVSAINASGGSTYYADSVKGRFTISRDNSKNTLYLQMNSLRAEDTAVYYCAKVRYGWGAGAFDYWGQGTLVTVSSGGGGSGGGGSGGGGSDIQMTQSPSTLSASVGDRVTITCRASQSISSWLAWYQQKPGKAPKLLIYDASSLESGVPSRFSGSGSGTEFTLTISSLQPDDFATYYCQQYDTYPPITFGQGTKVEIK
notes: also called clone 1D8
On to B4, for which the “fold lower dissociation constant Kd than the parent clone” value with IL-13RA2 huFc [4] was above 10 times. The off-rate (koff) in the test with IL-13RA2 huFc [5] is 0.00094 s⁻¹. In the test with IL-13RA2 huFc [6], this molecule showed a Kd of 13.8 nM, a koff of 0.000911 s⁻¹ and a kon of 66000 M⁻¹ s⁻¹.

B5: 2C7 (scFv_Fc form) (Fc fusion)
scFv: EVQLLESGGGLVQPGGSLRLSCAASGFTFKLPAMSWVRQAPGKGLEWVSAITGSGGSTYYADSVKGRFTISRDNSKNTLYLQMNSLRAEDTAVYYCAKVRYGWGAGAFDYWGQGTLVTVSSGGGGSGGGGSGGGGSDIQMTQSPSTLSASVGDRVTITCRASQSISSWLAWYQQKPGKAPKLLIYDASSLESGVPSRFSGSGSGTEFTLTISSLQPDDFATYYCQQYDTYPPITFGQGTKVEIK
notes: as for B1
For the molecule B5, in the test with IL-13RA2 huFc [1], the Kd is 0.248 nM, the koff was 9.15e-05 s⁻¹ and the kon came to 369000 M⁻¹ s⁻¹. In addition, the EC50 in test [2] was 0.57 nM. In the test with IL-13RA2 huFc [3], this molecule displayed a Kd of 0.248 nM, a koff of 9.15e-05 s⁻¹ and a kon of 369000 M⁻¹ s⁻¹.

B6: 2D4 (scFv_Fc form) (Fc fusion)
scFv: EVQLLESGGGLVQPGGSLRLSCAASGFTFRKYAMGWVRQAPGKGLEWVSGISGSVGSTYYADSVKGRFTISRDNSKNTLYLQMNSLRAEDTAVYYCAKVRYGWGAGAFDYWGQGTLVTVSSGGGGSGGGGSGGGGSDIQMTQSPSTLSASVGDRVTITCRASQSISSWLAWYQQKPGKAPKLLIYDASSLESGVPSRFSGSGSGTEFTLTISSLQPDDFATYYCQQYDTYPPITFGQGTKVEIK
notes: as for B1
In the test with IL-13RA2 huFc [1], B6 registered a Kd of 0.174 nM, an off-rate constant (koff) of 0.000113 s⁻¹ and a kon of 646000 M⁻¹ s⁻¹. In test [2], this molecule registered an EC50 of 0.37 nM. In the test with IL-13RA2 huFc [3], this molecule gave a dissociation constant Kd of 0.174 nM, a koff of 0.000113 s⁻¹ and a kon of 646000 M⁻¹ s⁻¹.

B7: 1H7 (scFv) (scFv)
scFv: EVQLLESGGGLVQPGGSLRLSCAASGFTFRRYAMSWVRQAPGKGLEWVSGISGSGGGTYYADSVKGRFTISRDNSKNTLYLQMNSLRAEDTAVYYCAKVRYGWGAGAFDYWGQGTLVTVSSGGGGSGGGGSGGGGSDIQMTQSPSTLSASVGDRVTITCRASQSISSWLAWYQQKPGKAPKLLIYDASSLESGVPSRFSGSGSGTEFTLTISSLQPDDFATYYCQQYDTYPPITFGQGTKVEIK
notes: also called clone 1H7
With B7, the “fold lower dissociation constant Kd than the parent clone” value with IL-13RA2 huFc [4] is above 10 times. The molecule also yielded a koff with IL-13RA2 huFc [5] of 0.000888 s⁻¹. In the test with IL-13RA2 huFc [6], binding was characterised by a dissociation constant (Kd) of 12.1 nM, the koff amounted to 0.000765 s⁻¹ and the kon stood at 63200 M⁻¹ s⁻¹.

B8: 1D11 (scFv) (scFv)
scFv: EVQLLESGGGLVQPGGSLRLSCAASGFTFGTIPMSWVRQAPGKGLEWVSSISGSAGSTYYADSVKGRFTISRDNSKNTLYLQMNSLRAEDTAVYYCAKVRYGWGAGAFDYWGQGTLVTVSSGGGGSGGGGSGGGGSDIQMTQSPSTLSASVGDRVTITCRASQSISSWLAWYQQKPGKAPKLLIYDASSLESGVPSRFSGSGSGTEFTLTISSLQPDDFATYYCQQYDTYPPITFGQGTKVEIK
notes: also called clone 1D11
As to B8, in the test with IL-13RA2 huFc [4], the “fold lower dissociation constant Kd than the parent clone” value is above 10 times. The molecule further displayed a koff in the test with IL-13RA2 huFc [5] of 0.000677 s⁻¹. In the test with IL-13RA2 huFc [6], this molecule returned a Kd of 9.89 nM, a koff of 0.000386 s⁻¹ and a kon of 39000 M⁻¹ s⁻¹.

B9: 5D7 (scFv_Fc form) (Fc fusion)
scFv: EVQLLESGGGLVQPGGSLRLSCAASGFTFSNYAMSWVRQAPGKGLEWVSGIRSSGGRTFYADSVKGRFTISRDNSKNTLYLQMNSLRAEDTAVYYCARVAFSGSFDYWGQGTLVTVSSGGGGSGGGGSGGGGSDIQMTQSPSTLSASVGDRVTITCRASQSISSWLAWYQQKPGKAPKLLIYDASSLESGVPSRFSGSGSGTEFTLTISSLQPDDFATYYCQQRNRYPPTFGQGTKVEIK
notes: as for B1
In the test with IL-13RA2 huFc [1], B9 yielded a Kd of 0.335 nM, a koff of 0.000247 s⁻¹ and a kon of 737000 M⁻¹ s⁻¹. The molecule further returned an EC50 in test [2] of 0.56 nM. In the test with IL-13RA2 huFc [3], the dissociation constant (Kd) is 0.335 nM, the koff is 0.000247 s⁻¹ and the kon came out at 737000 M⁻¹ s⁻¹.

B10: 5G3 (scFv_Fc form) (Fc fusion)
scFv: EVQLLESGGGLVQPGGSLRLSCAASGFTFSSYVLSWVRQAPGKGLEWVSAIRGSAGNTYYADSVKGRFTISRDNSKNTLYLQMNSLRAEDTAVYYCARVAFSGSFDYWGQGTLVTVSSGGGGSGGGGSGGGGSDIQMTQSPSTLSASVGDRVTITCRASQSISSWLAWYQQKPGKAPKLLIYDASSLESGVPSRFSGSGSGTEFTLTISSLQPDDFATYYCQQRNRYPPTFGQGTKVEIK
notes: as for B1
In the test with IL-13RA2 huFc [1], B10 returned an equilibrium dissociation constant (Kd) of 0.194 nM, a koff of 0.000134 s⁻¹ and a kon of 690000 M⁻¹ s⁻¹. In the test with IL-13RA2 huFc [7], this molecule returned a Kd of 0.194 nM, a koff of 0.000134 s⁻¹ and a kon of 690000 M⁻¹ s⁻¹. In test [2], this molecule came in with a 50% effective concentration (EC50) of 0.53 nM.
